Assay results as given in US10442866 (BEIJING MABWORKS BIOTECH, dated 2019).
Read-outs that look alike come from different tables or passages of the source.

T1: human OX40 expressed on HEK293A cells (human, UniProt P43489 29-277)
T1 construct: also called HEK293A/huOX40; HEK293A/human OX40 cells
T1 sequence: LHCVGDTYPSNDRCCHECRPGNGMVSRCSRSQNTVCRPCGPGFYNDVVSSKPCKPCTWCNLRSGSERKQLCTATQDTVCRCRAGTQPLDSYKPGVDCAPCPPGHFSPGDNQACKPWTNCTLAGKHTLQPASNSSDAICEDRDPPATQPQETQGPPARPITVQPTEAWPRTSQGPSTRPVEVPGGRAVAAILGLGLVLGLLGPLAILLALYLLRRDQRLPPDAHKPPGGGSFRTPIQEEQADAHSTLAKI

T2: recombinant human OX40-his (Sino Biological, Cat#:10481-H03H) (human, UniProt P43489 29-214)
T2 construct: bought protein; also called hOX40-his; not shown: His tag
T2 sequence: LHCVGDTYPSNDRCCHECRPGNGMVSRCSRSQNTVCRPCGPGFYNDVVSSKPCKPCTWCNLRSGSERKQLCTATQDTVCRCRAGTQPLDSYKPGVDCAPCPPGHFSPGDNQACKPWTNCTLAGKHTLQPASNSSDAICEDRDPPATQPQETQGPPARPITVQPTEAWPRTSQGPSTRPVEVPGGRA

T3: murine OX40-His (Crown, Cat#: E3350-B1707) (mouse, UniProt P47741 20-211)
T3 construct: bought protein; also called mouse OX40-his; muOX40-his; not shown: His tag
T3 sequence: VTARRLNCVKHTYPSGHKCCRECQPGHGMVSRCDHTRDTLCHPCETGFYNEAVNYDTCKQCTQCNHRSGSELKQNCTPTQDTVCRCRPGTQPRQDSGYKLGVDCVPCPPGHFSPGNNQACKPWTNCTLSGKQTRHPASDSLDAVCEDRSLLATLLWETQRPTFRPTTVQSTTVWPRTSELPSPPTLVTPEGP

T4: rhesus OX40 expressed on HEK293A cells (rhesus, UniProt P43489 29-277 (human entry))
T4 construct: also called HEK293A/rhOX40; HEK293A/rhesusOX40 cells
T4 chain: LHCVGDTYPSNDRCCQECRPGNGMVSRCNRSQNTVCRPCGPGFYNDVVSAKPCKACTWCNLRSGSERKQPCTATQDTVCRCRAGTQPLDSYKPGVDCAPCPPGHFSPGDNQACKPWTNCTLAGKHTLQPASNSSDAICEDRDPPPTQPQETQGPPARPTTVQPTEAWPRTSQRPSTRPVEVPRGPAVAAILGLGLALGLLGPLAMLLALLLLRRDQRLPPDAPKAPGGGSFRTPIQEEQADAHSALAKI

T5: recombinant rhesus OX40-his (Sino Biological, Cat#:90846-C08H) (rhesus monkey, UniProt P43489 29-214 (human entry))
T5 construct: bought protein; also called monkey OX40-his; rhOX40-his; not shown: His tag
T5 chain: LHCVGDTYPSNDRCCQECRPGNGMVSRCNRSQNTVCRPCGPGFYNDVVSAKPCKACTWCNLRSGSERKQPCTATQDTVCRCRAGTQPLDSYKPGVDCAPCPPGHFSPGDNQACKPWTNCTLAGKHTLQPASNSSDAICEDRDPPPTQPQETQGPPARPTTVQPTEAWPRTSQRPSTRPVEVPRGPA


Tests used:
[1] = target: T1, human OX40 expressed on HEK293A cells; experiment: FACS on HEK293A/huOX40 cells
[2] = target: T2, recombinant human OX40-his (Sino …); experiment: SPR Biacore 8K, OX40-His on chip, antibody injected
Method: SPR assays were used to determine the binding affinity of the chimetic or humanized anti-OX40 antibodies to human OX40 with the BIAcore™ 8K instrument (GE Life Sciences). Briefly, 100-200 response units (RU) of human OX40-His protein (Sino Biological, CN, Cat#:10481-H03H, Lot no.: MA08MA3003) were coupled to CM5 biosensor chips (Cat#: BR-1005-30, GE Life Sciences), followed by blocking of un-reacted groups with 1M ethanolamine. Serially diluted antibodies at concentrations ranging from 0.3 µM to 10 µM were injected into the SPR running buffer (HBS-EP buffer, pH7.4, GE Life Sciences; US; Cat#:BR-1006-69) at 30 µL/minute. The binding capacitity was calculated with the RUs of blank controls subtracted. The association rate (k_a) and dissociation rate (k_d) were calculated using the one-to-one Langmuir binding model (BIA Evaluation Software, GE Life Sciences). The equilibrium dissociation constant K_D was calculated as the k_d/k_a ratio.

[3] = target: T3, murine OX40-His (Crown, Cat#: …); experiment: ELISA on coated mouse OX40-His, OD450
[4] = target: T4, rhesus OX40 expressed on HEK293A cells; experiment: FACS on HEK293A/rhOX40 cells
[5] = target: T4, rhesus OX40 expressed on HEK293A cells; experiment: FACS on HEK293A/rhesus OX40 cells, MFI (panel without title; monkey OX40 by the legend)
Method: Briefly, 10^5 HEK293A cells were seeded into each well of the 96-well plates and serially diluted anti-OX40 antibodies were added to the plates. After incubated at 4° C. for 1 hour, plates were washed 3 times with PBST. Then, an APC coupled Goat Anti-Mouse IgG (BioLegen, US, Cat#: 405308) diluted 500× was added to the plates. After incubation at 4° C. for 1 hour, the plates were washed with PBS for 3 times and then cell fluorescence was monitored using a FACS machine (BD).
Example 15 Humanized Anti-OX40 Antibodies Bound to Human or Rhesus OX40 Expressed on HEK293A Cells The humanized anti-OX40 antibodies were also tested for their ability of binding to HEK293A/huOX40 cells or HEK293A/rhOX40 cells, following the FACS analysis protocol as described in Example 5.

[6] = target: T5, recombinant rhesus OX40-his (Sino …); experiment: ELISA on coated rhesus OX40-His, OD450
[7] = target: T5, recombinant rhesus OX40-his (Sino …); experiment: ELISA on coated rhesus OX40-His, OD450
[8] = target: T2, recombinant human OX40-his (Sino …); experiment: ELISA on coated human OX40-His, OD450
[9] = target: T3, murine OX40-His (Crown, Cat#: …); experiment: ELISA on coated mouse OX40-His, OD450; remark: listed apart in the source

Binder | EC50 [1] [ng/mL] | Kd [2] [nM] | koff [2] [s⁻¹] | kon [2] [M⁻¹ s⁻¹] | binding result [3] | EC50 [4] [ng/mL] | binding result [5] | binding result [6] | EC50 (read off the curve) [7] [ng/mL] | EC50 (read off the curve) [8] [ng/mL] | binding result [9]
chimeric antibody 68C8 (antibody, human IgG1, kappa, V domains shown, mouse variable regions with human IgG1/kappa constant regions) VH: QVQLQQSGAELVKPGASVKMSCKASGDTFTSYWITWVKQRPGQGLEWIGDIHPGSGSTNNNEKFKNKATLTVDTSSSTAYMQLSSLTSEDSAVYYCAKLRPYYFVYWGQGTTLTVSS VL: DIQMTQTTSSLSASLGDRVTISCRASQDISNYLNWYQQKPDGTVKLLIYYTSRLLSGVPSRFSGSGSGTDYSLTISNLEQEDIATYFCQQGNTLPLTFGAGTRLELKR | 134 | 0.187 | 7.35e-05 | 393000 | no binding (tested: 10000 ng/ml (log 4)) | 80.7 | – | – | – | – | –
chimeric antibody 6A12 (antibody, human IgG1, kappa, V domains shown, mouse variable regions with human IgG1/kappa constant regions) VH: QVQLQQSGPELVKPGASVKISCKASGYAFSSSWMNWVKQRPGKGLEWIGRIYPGDGITNYNGNFKGKATLTADKSSSTAYMQLSGLTSADSAVYFCAREFIPLGWGTGTTVTVSS VL: DIVMTQTPFSNPVTLGTSASISCRSSKSLLHSNGITYLYWYLQKPGQSPQLLIYQMSNLASGVPDRFSSSGSGTDFTLRISRVEAEDVGVYYCAQNLELPWTFGGGTKLEIKR | 177 | – | – | – | – | 883 | – | – | – | – | –
68C8-VH2VL2 (antibody, human IgG1, kappa, V domains shown, humanized; also called 68C8-H2L2) VH: QVQLVQSGAEVKKPGASVKVSCKVSGDTFTSYWITWVRQRPGKGLEWMGDIHPGSGSTNNNEKFKNRVTMTVDTSTDTAYMELSSLRSEDTAVYYCATLRPYYFVYWGQGTLVTVSS VL: DIQMTQSPSSLSASVGDRVTITCRASQDISNYLNWYQQKPGKTPKLLIYYTSRLLSGVPSRFSGSGSGTDYTLTISSLQPEDFATYYCQQGNTLPLTFGQGTRLEIKR | – | 5.07 | 0.00105 | 207000 | no binding (tested: 10000 ng/ml (log 4)) | – | binds | binds | – | – | –
68C8-VH3VL3 (antibody, human IgG1, kappa, V domains shown, humanized; also called 68C8-H3L3) VH: QVQLVQSGAEVKKPGASVKVSCKVSGDTFTSYWITWVRQRPGQGLEWIGDIHPGSGSTNNNEKFKNRVTLTVDTSTDTAYMELSSLRSEDTAVYYCATLRPYYFVYWGQGTLVTVSS VL: DIQMTQSPSSLSASVGDRVTITCRASQDISNYLNWYQQKPGKTVKLLIYYTSRLLSGVPSRFSGSGSGTDYTLTISSLQPEDFATYFCQQGNTLPLTFGQGTRLEIKR | – | 4.04 | 0.000821 | 203000 | no binding (tested: 10000 ng/ml (log 4)) | – | binds | binds | – | – | –
68C8-VH0VL0 (antibody, human IgG1, kappa, V domains shown, humanized; also called 68C8-H0L0) VH: QVQLVQSGAEVKKPGASVKVSCKVSGDTFTSYWITWVRQAPGKGLEWMGDIHPGSGSTNNNEKFKNRVTMTEDTSTDTAYMELSSLRSEDTAVYYCATLRPYYFVYWGQGTLVTVSS VL: DIQMTQSPSSLSASVGDRVTITCRASQDISNYLNWYQQKPGKAPKLLIYYTSRLLSGVPSRFSGSGSGTDFTLTISSLQPEDFATYYCQQGNTLPLTFGQGTRLEIKR | – | 4.49 | 0.00184 | 410000 | no binding (tested: 10000 ng/ml (log 4)) | – | binds | binds | – | – | –
71H8-VH2VL2 (antibody, human IgG1, kappa, V domains shown, humanized; also called 71H8-H2L2) VH: QVQLVQSGAEVKKPGASVKVSCKVSGYTFTSYWITWVRQRPGKGLEWMGDIYPGSGSTNQNEKFKSRVTMTVDTSTDTAYMELSSLRSEDTAVYYCATLRPYYFVYWGQGTLVTVSS VL: DIQMTQSPSSLSASVGDRVTITCRASQDISNYLNWYQQKPGKTPKLLIYYTSRLLSGVPSRFSGSGSGTDYTLTISSLQPEDFATYYCQQGNTLPLTFGQGTRLEIKR | – | 4.81 | 0.00172 | 358000 | – | – | binds | – | ~3 | ~3 | no binding (tested: 10000 ng/ml (log 4))
68C8-VH3VL2 (antibody, human IgG1, kappa, V domains shown, humanized; also called 68C8-H3L2) VH: QVQLVQSGAEVKKPGASVKVSCKVSGDTFTSYWITWVRQRPGQGLEWIGDIHPGSGSTNNNEKFKNRVTLTVDTSTDTAYMELSSLRSEDTAVYYCATLRPYYFVYWGQGTLVTVSS VL: DIQMTQSPSSLSASVGDRVTITCRASQDISNYLNWYQQKPGKTPKLLIYYTSRLLSGVPSRFSGSGSGTDYTLTISSLQPEDFATYYCQQGNTLPLTFGQGTRLEIKR | – | 9.55 | 0.00157 | 165000 | no binding (tested: 10000 ng/ml (log 4)) | – | binds | binds | – | – | –
71H8-VH0VL0 (antibody, human IgG1, kappa, V domains shown, humanized; also called 71H8-H0L0) VH: QVQLVQSGAEVKKPGASVKVSCKVSGDTFTSYWITWVRQAPGKGLEWMGDIYPGSGSTNQNEKFKSRVTMTEDTSTDTAYMELSSLRSEDTAVYYCATLRPYYFVYWGQGTLVTVSS VL: DIQMTQSPSSLSASVGDRVTITCRASQDISNYLNWYQQKPGKAPKLLIYYTSRLLSGVPSRFSGSGSGTDFTLTISSLQPEDFATYYCQQGNTLPLTFGQGTRLEIKR | – | 9.21 | 0.00274 | 297000 | – | – | binds | – | ~3 | ~3 | no binding (tested: 10000 ng/ml (log 4))
71H8-VH3VL3 (antibody, human IgG1, kappa, V domains shown, humanized; also called 71H8-H3L3) VH: QVQLVQSGAEVKKPGASVKVSCKVSGYTFTSYWITWVRQRPGQGLEWIGDIYPGSGSTNQNEKFKSRVTLTVDTSTDTAYMELSSLRSEDTAVYYCATLRPYYFVYWGQGTLVTVSS VL: DIQMTQSPSSLSASVGDRVTITCRASQDISNYLNWYQQKPGKTVKLLIYYTSRLLSGVPSRFSGSGSGTDYTLTISSLQPEDFATYFCQQGNTLPLTFGQGTRLEIKR | – | 6.36 | 0.00207 | 325000 | – | – | binds | – | ~3 | ~3 | no binding (tested: 10000 ng/ml (log 4))
